In article PMC3155264 (Cell, 2011):

What was measured:
crystal structure = molecular target: the molecule itself; experiment: crystal structure
SEC = molecular target: the molecule itself; experiment: SEC

Row | Protein | binding result (crystal structure) | binding result (SEC)
1 | MinE^I24N*-h (domain or fragment, E. coli, UniProt P0A734 12-88, looked up) KNTANIAKERLQNIVAERRRSDAEPHYLPQLRKDILEVICKYVQIDPEMVTVQLEQKDGDISILELNVTLPEAEELK | binds | 
2 | MinE^21-88 (domain or fragment, E. coli, UniProt P0A734 21-88, looked up) RLQIIVAERRRSDAEPHYLPQLRKDILEVICKYVQIDPEMVTVQLEQKDGDISILELNVTLPEAEELK |  | binds
